Test results taken from IntAct's records for PubMed 33393904.

B1: SUN domain-containing protein 2 (Homo sapiens), Q9UH99 (parent)
chain: MSRRSQRLTRYSQGDDDGSSSSGGSSVAGSQSTLFKDSPLRTLKRKSSNMKRLSPAPQLGPSSDAHTSYYSESLVHESWFPPRSSLEELHGDANWGEDLRVRRRRGTGGSESSRASGLVGRKATEDFLGSSSGYSSEDDYVGYSDVDQQSSSSRLRSAVSRAGSLLWMVATSPGRLFRLLYWWAGTTWYRLTTAASLLDVFVLTRRFSSLKTFLWFLLPLLLLTCLTYGAWYFYPYGLQTFHPALVSWWAAKDSRRPDEGWEARDSSPHFQAEQRVMSRVHSLERRLEALAAEFSSNWQKEAMRLERLELRQGAPGQGGGGGLSHEDTLALLEGLVSRREAALKEDFRRETAARIQEELSALRAEHQQDSEDLFKKIVRASQESEARIQQLKSEWQSMTQESFQESSVKELRRLEDQLAGLQQELAALALKQSSVAEEVGLLPQQIQAVRDDVESQFPAWISQFLARGGGGRVGLLQREEMQAQLRELESKILTHVAEMQGKSAREAAASLSLTLQKEGVIGVTEEQVHHIVKQALQRYSEDRIGLADYALESGGASVISTRCSETYETKTALLSLFGIPLWYHSQSPRVILQPDVHPGNCWAFQGPQGFAVVRLSARIRPTAVTLEHVPKALSPNSTISSAPKDFAIFGFDEDLQQEGTLLGKFTYDQDGEPIQTFHFQAPTMATYQVVELRILTNWGHPEYTCIYRFRVHGEPAH

Variants of: B1
Settings: with syne1_human SYNE1, Q8NF91

effect of a mutation on the interaction | Variant
increasing interaction strength | C705A
disrupting interaction strength | I579E
